Test results taken from patent US20020049180.

Assays:
[1] = molecular target: GST-fusion protein containing amino acids 227-325 of KIAA0175 (UniProt Q14680)
GST-hDM2 (330-491) = GST-hDM2 (330-491) (UniProt Q00987)
[2] = molecular target: GST-fusion protein containing amino acids 42-182 of KIAA0175 (UniProt Q14680)
GST-Chk2(1-222) = GST-Chk2(1-222) (UniProt O96017)
[3] = molecular target: KIAA0175 (327-517) with serine 391 mutated to alanine (UniProt Q14680)
GST-p53 (1-106) = GST-p53 (1-106) (UniProt P04637)
[4] = molecular target: GST-fusion protein containing amino acids 327-517 of KIAA0175 (UniProt Q14680)

## Ataxia telangiectasia mutated (ATM)
[1]
  in vitro phosphorylation by ATM immunoprecipitates: amino acids 227-325 with no SQ sites, were not phosphorylated
GST-hDM2 (330-491)
  in vitro phosphorylation by ATM immunoprecipitates: KIAA0175 (327-517) phosphorylation was comparable to that seen with several known substrates of ATM included in the same assay, ... GST-hDM2 (330-491)
[2]
  in vitro phosphorylation by ATM immunoprecipitates: amino acid 42-182 (containing S100Q and S^125Q) ... were not phosphorylated
GST-Chk2(1-222)
  in vitro phosphorylation by ATM immunoprecipitates: KIAA0175 (327-517) phosphorylation was comparable to that seen with several known substrates of ATM included in the same assay, ... GST-Chk2(1-222)
[3]
  irradiation induced phosphorylation by ATM: Mutation of serine 391 to alanine completely abolished the irradiation induced phosphorylation by ATM
GST-p53 (1-106)
  in vitro phosphorylation by ATM immunoprecipitates: KIAA0175 (327-517) phosphorylation was comparable to that seen with several known substrates of ATM included in the same assay, GST-p53 (1-106)
[4]
  in vitro phosphorylation by ATM immunoprecipitates: A fusion including amino acids 327-517 harboring S^391Q was a substrate for ATM
